Reference: publication PMC7542843 (ACS Omega, 2020)

B1: Heregulin-β1 (Hrgβ1) (ligand)
chain: TSHLVKCAEKEKTFCVNGGECFMVKDLSNPSRYLCKCPNEFTGDRCQNYVMASFYKHLGIEFMEAEELYQK

How the values were obtained:
EGF (Homo sapiens) = EGF (Homo sapiens) (UniProt P01133); details: cited from earlier work
[1] = molecular target: biotinylated HER3 extracellular domain (ECD) (UniProt P21860 20-643, biotin on the C-terminal BirA biotinylation site); assay: ELISA
biotinylated HER3 extracellular domain (ECD), sequence (P21860 20-643): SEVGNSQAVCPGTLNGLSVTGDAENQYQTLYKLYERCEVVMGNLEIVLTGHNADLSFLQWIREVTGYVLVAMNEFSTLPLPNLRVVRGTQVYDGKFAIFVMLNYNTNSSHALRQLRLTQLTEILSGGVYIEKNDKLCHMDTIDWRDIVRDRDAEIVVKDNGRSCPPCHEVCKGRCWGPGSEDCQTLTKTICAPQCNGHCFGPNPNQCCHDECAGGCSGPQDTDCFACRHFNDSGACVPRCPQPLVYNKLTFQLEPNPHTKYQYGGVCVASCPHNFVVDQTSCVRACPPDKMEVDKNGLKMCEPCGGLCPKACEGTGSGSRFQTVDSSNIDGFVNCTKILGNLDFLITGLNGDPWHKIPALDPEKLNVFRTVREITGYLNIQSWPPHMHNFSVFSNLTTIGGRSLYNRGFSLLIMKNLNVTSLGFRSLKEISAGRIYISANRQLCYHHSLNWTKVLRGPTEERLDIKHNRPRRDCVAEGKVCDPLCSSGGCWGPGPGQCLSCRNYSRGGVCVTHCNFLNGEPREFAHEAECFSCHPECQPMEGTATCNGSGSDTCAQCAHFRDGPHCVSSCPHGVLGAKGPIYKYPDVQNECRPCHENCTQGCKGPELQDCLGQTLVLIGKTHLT

EGF (Homo sapiens), sequence (P01133 971-1023): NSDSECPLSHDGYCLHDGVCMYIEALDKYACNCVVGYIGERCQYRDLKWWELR

Row | Molecule | Kd (EGF (Homo sapiens)) [nM] | Kd [1] [nM]
1 | EGFR (from UniProt P00533) | 177 | –
2 | B1 | – | 12.6
